# Reference: patent publication US20130171217A1, “ENZYMATIC PERACID GENERATION FOR USE IN SKIN CARE PRODUCTS” (E I DU PONT DE NEMOURS AND COMPANY, priority 2010, published 2013)
# B1: C277S-HC1010: C277S variant of Thermotoga maritima perhydrolase fused via a flexible linker to hair-binding domain HC1010 (protein)
# chain: MAFFDLPLEELKKYRPERYEEKDFDEFWEETLAESEKFPLDPVFERMESHLKTVEAYDVTFSGYRGQRIKGWLLVPKLEEEKLPCVVQYIGYNGGRGFPHDWLFWPSMGYICFVMDTRGQGSGWLKGDTPDYPEGPVDPQYPGFMTRGILDPRTYYYRRVFTDAVRAVEAAASFPQVDQERIVIAGGSQGGGIALAVSALSKKAKALLCDVPFLCHFRRAVQLVDTHPYAEITNFLKTHRDKEEIVFRTLSYFDGVNFAARAKIPALFSVGLMDNISPPSTVFAAYNYYAGPKEIRIYPYNNHEGGGSFQAVEQVKFLKKLFEKGGPGSGGAGSPGSAGGPGSAQSQLPDKHSGLHERAPQRYGSGTAEIQSSKNPNPHPQRSWTNGSGHNHMQERYTDPQHSPSVNGLGSGHDHKNQKETHQRHAASSHHHHHH
# B2: CPAH-HC263: fusion peptide C277S-HC263 further comprising a D128G substitution (protein)
# chain: MAFFDLPLEELKKYRPERYEEKDFDEFWEETLAESEKFPLDPVFERMESHLKTVEAYDVTFSGYRGQRIKGWLLVPKLEEEKLPCVVQYIGYNGGRGFPHDWLFWPSMGYICFVMDTRGQGSGWLKGGTPDYPEGPVDPQYPGFMTRGILDPRTYYYRRVFTDAVRAVEAAASFPQVDQERIVIAGGSQGGGIALAVSALSKKAKALLCDVPFLCHFRRAVQLVDTHPYAEITNFLKTHRDKEEIVFRTLSYFDGVNFAARAKIPALFSVGLMDNISPPSTVFAAYNYYAGPKEIRIYPYNNHEGGGSFQAVEQVKFLKKLFEKGGPGSGGAGSPGSAGGPGSPSAQSQLPDKHSGLHERAPQRYGPEPEPEPEPIPEPPKEAPVVIEKPKPKPKPKPKPPAHDHKNQKETHQRHAAGSGGGGSPHHHHHH
# B3: SEQ ID NO: 341: C277S variant of Thermotoga maritima perhydrolase fused to hair binding domain HC263KtoR via a flexible linker (protein)
# chain: MAFFDLPLEELKKYRPERYEEKDFDEFWEETLAESEKFPLDPVFERMESHLKTVEAYDVTFSGYRGQRIKGWLLVPKLEEEKLPCVVQYIGYNGGRGFPHDWLFWPSMGYICFVMDTRGQGSGWLKGDTPDYPEGPVDPQYPGFMTRGILDPRTYYYRRVFTDAVRAVEAAASFPQVDQERIVIAGGSQGGGIALAVSALSKKAKALLCDVPFLCHFRRAVQLVDTHPYAEITNFLKTHRDKEEIVFRTLSYFDGVNFAARAKIPALFSVGLMDNISPPSTVFAAYNYYAGPKEIRIYPYNNHEGGGSFQAVEQVKFLKKLFEKGGPGSGGAGSPGSAGGPGSPSAQSQLPDRHSGLHERAPQRYGPEPEPEPEPIPEPPREAPVVIERPRPRPRPRPRPPAHDHRNQRETHQRHAAGSGGGGSPHHHHHH
# B4: SEQ ID NO: 314: untargeted S54V variant of the aryl esterase from Mycobacterium smegmatis (protein, listed as Mycobacterium smegmatis)
# chain: MAKRILCFGDSLTWGWVPVEDGAPTERFAPDVRWTGVLAQQLGADFEVIEEGLVARTTNIDDPTDPRLNGASYLPSCLATHLPLDLVIIMLGTNDTKAYFRRTPLDIALGMSVLVTQVLTSAGGVGTTYPAPKVLVVSPPPLAPMPHPWFQLIFEGGEQKTTELARVYSALASFMKVPFFDAGSVISTDGVDGIHFTEANNRDLGVALAEQVRSLL
# Columns and labels:
# [1] = Retention of perhydrolase on hair detected by hydrolase activity; assay type: binding
# Procedure: For hair binding experiments brown hair tresses (International Hair Importers and Products, Glensdale N.Y.) were used. The hair was washed with 2% SLES, rinsed extensively with deionized water and air dried.
# Around 20 mg of 1 cm brown hair fragments was added in a 1.8-mL microfuge tube. Hydrolase assay buffer (1.2 mL) as added to the hair followed by the addition of the perhydrolase enzymes to the solution. The enzymes were allowed to bind the hair for 30 min with gentle agitation (24 rpm) on an Adams Nutator (model 1105, Becton Dickinson, Franklin Lakes, N.J.). No enzyme controls, with hair and without hair, were included in the binding experiment to account for non-enzymatic hydrolysis of the pNPA hydrolase reagent. After the binding step, a 1.0-mL aliquot of the binding buffer was transferred to a new tube to quantitate the amount of unbound enzyme. Additional binding buffer was removed and the hair fragments were washed 4 times with 1 mL of 1% TWEEN®-20 in hydrolase buffer, followed by 2 washes with 1 mL each in hydrolase buffer. The hair fragments were then resuspended in 1 mL of hydrolase assay and the hydrolase activity that remained bound to the hair was measured. The C277S (“PAH”) variant of Thermotoga maritima perhydrolase (SEQ ID NO: 293) was used as a control for an un-targeted perhydrolase.
# [2] = Single fiber tensile strength and bleaching start after two-step enzymatic application; settings: two-step with buffer rinse
# Procedure: Hair samples were cut into pieces 4-inches in length. The denier number (liner mass density) of each hair fiber was measured by Textechno Vibromat Instrument (Textechno Herbert Stein GmbH & Co. KG; Germany). The hair fibers were tested according to ASTM D 3822-01 (“Tensile Properties of Single Textile Fibers”; ASTM International, West Conshohocken, Pa., 2001), on an Instron testing system (Instron Model 1122 Tester; Instron, Mass.) at about 70° F. (approximately 21° C.) and 65% relative humidity. The treated area of the hair sample was placed in the middle of the gauge and both ends were gripped on the test heads. Both fiber ends were attached on a piece of tape, respectively, for easy handling and gripping on the test heads. The test used 2-inch (5.1 cm) gauge length, […], and 1.2 inch/min (3 cm/min) pulling rate. The force-strain curve of the fiber was recorded during the test. The tenacity at maximum (gf/den) was calculated by dividing maximum force (gf) by denier number (den). Note that (gf/den)/11.33=Newtons/tex (N/tex).
# In a two-step application, the hair strands are first treated with perhydrolase solutions to allow the enzyme to bind hair. The hair strands are then dried or rinsed with buffer and dried. The rinse step is intended to remove excess unbound enzyme from the hair. The hair strands are soaked in triacetin and H2O2 solutions. The application is repeated for multiple times.
# One experiment was carried out with C277S-HC263 and untargeted T. maritima variant C277S using the following protocol: • 1. Enzyme solutions comprising 0.5 mg/mL enzyme in 50 mM phosphate buffer (pH 8) were made with or without 10 wt % urea. • 2. Seven (7) hair strands were soaked in 0.2 mL of an enzyme solution for 10 min and then dried under N2 without prior rinsing. • 3. The hair strands were then soaked in 0.2 mL of a pH 8 solution containing 100-mM triacetin and 250-mM H2O2 for 15 min, dried, then rinsed with DI water and then dried again. • 4. Steps 2-3 were repeated up to 15 times.
# Another experiment was carried out with C277S-HC263 (SEQ ID NO: 288), CPAH-HC263 (SEQ ID NO: 294), CPAH-HC1010 (SEQ ID NO: 295) and untargeted C277S using the following protocol: • 1. Enzyme solutions comprising 1.0 mg/mL enzyme in 50 mM phosphate buffer (pH 6) were prepared. For solutions containing two enzymes, the concentration of each enzyme was approximately 0.5 mg/mL. • 2. Seven (7) hair strands were soaked in 0.2 mL of an enzyme solution for 10 min, rinsed with 50 mM phosphate buffer (pH 6), and then dried under N2. • 3. The dried hair strands were then soaked into 0.2 mL of 50 mM phosphate buffer solution (pH 8) comprising 100 mM triacetin and 250 mM H2O2 for 15 min, dried, then rinsed with DI water and then dried again. • 4.
# [3] = Perhydrolase activity remaining bound to hair, ABTS assay; assay type: binding, human; settings: 50 μg/mL
# Procedure: Ten mg of human hair was submerged in 2 mL of a binding solution containing 50 μg/mL of the Thermotoga maritima perhydrolase targeted to hair via the hair binding peptide HC263 (C277S-HC263; SEQ ID NO: 288; also referred to herein as “HC1121”) in 50 mM pH 7.2 potassium phosphate buffer containing 5% of the test surfactant. The test surfactants were two nonionic surfactants: TWEEN®-20 (Sigma, St Louis, Mo.), and TRITON®-X 100 (Aldrich, St Louis, Mo.), and two ionic surfactants: CHEMBETAINE™ CAD (Cocamidopropyl betaine; Lubrizol, Wickliffe, Ohio) and RHODAPEX® ES-2K (sodium laurel ether sulfate; Rhodia Novecare, Cranbury, N.J.).
# Hair was incubated in the binding solution at room temperature (˜22° C.) with gentle agitation for 30 minutes, at which time the solution was removed by aspiration and the hair rinsed with 1% TWEEN®-20 in 50 mM pH 7.2 potassium phosphate buffer. The hair was removed from the tube, blotted dry with paper towel, and transferred to a new set of tubes. The hair was rinsed once with 1% TWEEN®-20 in 50 mM pH 7.2 potassium phosphate buffer and then rinsed three times with 50 mM pH 7.2 potassium phosphate buffer. Perhydrolase activity remaining bound to the hair was determined by the ABTS assay.
# The ABTS assay was performed as follows: hair samples treated as described above were transferred to new 2-mL microcentrifuge tubes (Eppendorf Protein LoBind; Eppendorf North America, Hauppauge, N.Y.) To each tube was added 480 μL of PAH buffer (50 mM potassium phosphate, pH 7.2), 14 μL of 39% hydrogen peroxide (Sigma 3410), and 6 μL triacetin (Sigma-Aldrich W200700). The perhydrolase reaction was allowed to proceed for 10 minutes at room temperature (˜22-25° C.). The reaction was stopped by diluting aliquots 10×, 100× and 1000× with 10 mM phosphoric acid. For detection 50 μL of 1 M acetic acid, 50 μL of 40 mg/mL potassium iodide, and 50 μL of 4 mM ABTS (2,2′-azino-bis(3-ethylbenzthiazoline-6-sulphonic acid; Sigma, St Louis, Mo.) were added to 50 μL of the above dilutions. Color was allowed to develop for 10 minutes and read in a spectrophotometer at 405 nm. Values from no-enzyme controls were subtracted to yield values attributable only to enzyme activity. A standard curve of OD 405 nm vs PAA concentration in ppm yielded a conversion factor of 8.75, such that an OD 405 nm of 1.0 corresponded to approximately 8.75 ppm PAA. This value was then multiplied by the appropriate dilution to arrive at the PAA concentration in the perhydrolase reaction.
# The Thermotoga maritima perhydrolase targeted to hair via the hair binding peptide HC263 (C277S-HC263; SEQ ID NO: 288) was diluted to 50 μg/mL in a solution of 5% PEG-80 sorbitan laurate in 100 mM citrate-phosphate buffer adjusted to pH 4.9, pH 5.5, pH 6.0, or pH 7.0. Ten mg of human hair was added to 2 mL of the above formulations and incubated with gentle agitation for 5 minutes at room temperature to allow enzyme binding to hair. A no-enzyme control sample was included with each pH. After binding, the binding solution was removed by aspiration and the hair was washed with 2 mL of 1% TWEEN®-20 in 50 mM pH 7.2 potassium phosphate buffer. The hair was removed from the tube, blotted dry with paper towel, and transferred to a new set of tubes. The hair was rinsed once with 1% TWEEN®-20 in 50 mM pH 7.2 potassium phosphate buffer and then rinsed three time with 50 mM pH 7.2 potassium phosphate buffer. Perhydrolase activity remaining bound to the hair was determined by the ABTS assay. The results are given as ppm PAA produced at 10 minutes (after subtraction of the no-enzyme control values)
# The Thermotoga maritima perhydrolase targeted to hair via the hair binding peptide HC263 (C277S-HC263; SEQ ID NO: 288) was diluted to 50 μg/mL in a solution of 5% PEG-80 sorbitan laurate in 100 mM citrate-phosphate buffer adjusted to pH 6.0. […]
# [4] = pH 6.0, binding 1 min, at 10 minutes
molecule,measurement,setting,value
B1,Activity in the first TWEEN®-20 wash,"[1]; hydrolase activity, 1% TWEEN®-20",20%
same,Activity retained on hair after 4 TWEEN® 20 washes,"[1]; hydrolase activity, 4 washes 1% TWEEN®-20 and 2 buffer washes",41%
same,Activity unbound,"[1]; hydrolase activity, ~20 mg hair, binding 30 min",20%
same,100% activity (hydrolase activity added to the tube),"[1]; tube containing ~20 mg of hair, not subjected to washes",125 µmol/min
B2,Bleaching Start,[2]; 1.0 mg/mL enzyme pH 6,9th
same,Tenacity @ max,"[2]; 1.0 mg/mL enzyme pH 6, 100 mM triacetin, 250 mM H2O2, up to 13 repeats",0.6 gf/den
B3,ppm PAA,"[3]; 5% PEG-80 sorbitan laurate pH 6.0, binding 10 min, PAA at 10 minutes",958 ppm
B4,OD 405nm,[3]; [4],0.003
same,Peracetic acid,[3]; [4],2.60 ppm
